The target in one experiment is HLA-B*07:02. Description: IEDB peptide-MHC binding, purified MHC/competitive/radioactivity; filed as Kd, often an IC50 or EC50 that approximates it; ≥ and ≤ were set here for values at or beyond the usual limits of such assays.
In the next experiment the target is HLA-B*54:01. The description is as above.
Another experiment deals with HLA-B*53:01. Described as above.
Another experiment has as its target HLA-B*51:01. Described as above.
A further experiment addresses HLA-B*35:01. Described as above.
For another experiment, the target named is HLA-B*57:01. Description: IEDB peptide-MHC binding, purified MHC/direct/fluorescence; filed as Kd, often an IC50 or EC50 that approximates it; ≥ and ≤ were set here for values at or beyond the usual limits of such assays.
Another experiment deals with HLA-B*58:01. Described as above.
Experiment [1] concerns the target HLA-B*15:01. Kind of experiment: IEDB peptide-MHC binding, purified MHC/competitive/radioactivity; filed as Kd, often an IC50 or EC50 that approximates it; ≥ and ≤ were set here for values at or beyond the usual limits of such assays.
The target in experiment [2] is HLA-B*15:01. Description: IEDB peptide-MHC binding, purified MHC/competitive/fluorescence; ≥ and ≤ were set here for values at or beyond the usual limits of such assays.
The target of the next experiment is HLA-A*02:06. Description: IEDB peptide-MHC binding, purified MHC/competitive/radioactivity; filed as Kd, often an IC50 or EC50 that approximates it; ≥ and ≤ were set here for values at or beyond the usual limits of such assays.
The next experiment deals with HLA-A*02:01. Kind of experiment: IEDB peptide-MHC binding, purified MHC/competitive/fluorescence; ≥ and ≤ were set here for values at or beyond the usual limits of such assays.
The target of another experiment is HLA-A*24:02. The experiment is described as above.
Another experiment has as its target HLA-A*11:01. The description is as above. To be noted: source organism: Vaccinia virus WR.
Another experiment has as its target HLA-A*32:01. Kind of experiment: IEDB peptide-MHC binding, purified MHC/competitive/radioactivity; filed as Kd, often an IC50 or EC50 that approximates it; ≥ and ≤ were set here for values at or beyond the usual limits of such assays. To be noted: source organism: Vaccinia virus WR.
The target of the next experiment is HLA-A*01:01. Kind of experiment: IEDB peptide-MHC binding, purified MHC/competitive/fluorescence; filed as Kd, often an IC50 or EC50 that approximates it; ≥ and ≤ were set here for values at or beyond the usual limits of such assays.
Another experiment has as its target HLA-B*08:01. Description: IEDB peptide-MHC binding, purified MHC/competitive/radioactivity; filed as Kd, often an IC50 or EC50 that approximates it; ≥ and ≤ were set here for values at or beyond the usual limits of such assays. To be noted: source organism: Dengue virus 1 Brazil/97-11/1997.
The next experiment deals with HLA-B*46:01. Kind of experiment: IEDB peptide-MHC binding, purified MHC/competitive/fluorescence; filed as Kd, often an IC50 or EC50 that approximates it; ≥ and ≤ were set here for values at or beyond the usual limits of such assays. The conditions noted are these: source organism: Listeria monocytogenes J0161.
[3] abbreviates: source organism: Vaccinia virus WR.
Where [4] appears, read: source organism: Burkholderia thailandensis.
Where [5] appears, read: source organism: Zaire ebolavirus.
The mark [6] stands for this setting: source organism: Triticum aestivum.
The mark [7] stands for this setting: source organism: Dengue virus 2 Jamaica/1409/1983.
Where [8] appears, read: source organism: SARS coronavirus Tor2.
[9] abbreviates: source organism: Dengue virus 1 Brazil/97-11/1997.
Setting [10] is: source organism: Listeria monocytogenes.

As a reminder, the Kd is the equilibrium constant for the complex coming apart. As usually defined, the IC50 is the point on the concentration scale where inhibition reaches its midpoint.

Regarding TPIFSDLLKY, the dissociation constant Kd with HLA-B*07:02 (setting [3]) was 3.46 nM; in the experiment with HLA-B*54:01 (setting [3]) it was 12800 nM; with HLA-B*53:01 (setting [3]), 3610 nM; in the experiment with HLA-B*51:01 (setting [3]), not below 44800 nM; in the experiment with HLA-B*35:01 (setting [3]), 12700 nM.

In the case of WADMPLHQW, the Kd in the experiment with HLA-B*57:01 (setting [4]) turned out to be 469 nM; with HLA-B*58:01 (setting [4]), 9 nM.

For NIAFLDESF, in the experiment with HLA-B*15:01 [1] (setting [3]), the Kd is 822 nM.

Regarding YIILFILFF, the Kd with HLA-B*15:01 [1] (setting [3]) came to 5240 nM.

AGVNVGEQY showed an IC50 with HLA-B*15:01 [2] (setting [5]) of 23300 nM.

Regarding FPQPQLPY, the Kd with HLA-B*07:02 (setting [6]) was 14100 nM; in the experiment with HLA-B*54:01 (setting [6]), not below 87700 nM; with HLA-B*53:01 (setting [6]), 1040 nM; in the experiment with HLA-B*51:01 (setting [6]), 20.4 nM; in the experiment with HLA-B*35:01 (setting [6]) it was 244 nM.

AQMWTLMYF: the equilibrium dissociation constant (Kd) is 0.725 nM in the experiment with HLA-B*15:01 [1] (setting [7]) and 2.75 nM in the experiment with HLA-A*02:06 (setting [7]).

FLMTATLED: the results for the IC50 with HLA-B*15:01 [2] (source organism: Variola virus), with HLA-A*02:01 (source organism: Variola virus) and with HLA-A*24:02 (source organism: Variola virus) were 28600 nM, 2590 nM and not below 78300 nM, respectively.

Regarding LSCSVCNSL, the Kd in the experiment with HLA-B*15:01 [1] (setting [3]) came to 386 nM.

In the case of MSRGYFEHM, in the experiment with HLA-B*15:01 [1] (setting [3]), the Kd is 30.8 nM.

On to FPQHVITKDV, for which the Kd was found to be 57.3 nM in the experiment with HLA-B*07:02 (setting [3]); 0.46 nM with HLA-B*54:01 (setting [3]); 16.2 nM with HLA-B*53:01 (setting [3]); 66.2 nM with HLA-B*51:01 (setting [3]); 153 nM in the experiment with HLA-B*35:01 (setting [3]).

In the case of KSINVEYRF, the half-inhibitory concentration (IC50) was not below 98400 nM with HLA-B*15:01 [2] (setting [3]), 3450 nM in the experiment with HLA-A*02:01 (setting [3]), 643 nM with HLA-A*24:02 (setting [3]) and not below 170000 nM with HLA-A*11:01. Besides, the Kd in the experiment with HLA-A*32:01 worked out at 1.53 nM.

Take IEILNTIQF: the half-inhibitory concentration (IC50) with HLA-B*15:01 [2] (setting [3]) is not below 139000 nM; in the experiment with HLA-A*24:02 (setting [3]), not below 310000 nM.

As to WPWYVWLGFI, the Kd with HLA-B*07:02 (setting [8]) was not below 51800 nM; in the experiment with HLA-B*54:01 (setting [8]), 15500 nM; with HLA-B*53:01 (setting [8]), 4570 nM; with HLA-B*51:01 (setting [8]), 11100 nM; with HLA-B*35:01 (setting [8]), not below 69900 nM.

With LPPKSSIDAF, the Kd with HLA-B*07:02 (setting [8]) was 3090 nM; with HLA-B*54:01 (setting [8]) it was not below 31900 nM; with HLA-B*53:01 (setting [8]), 11100 nM; with HLA-B*51:01 (setting [8]), 3490 nM; with HLA-B*35:01 (setting [8]) it was 1110 nM.

ISIKVKNHI: in the experiment with HLA-B*15:01 [1] (setting [3]), the Kd amounted to 5600 nM.

In the experiment with HLA-B*15:01 [2] (setting [5]), RQIQVHAEQ gave a half-inhibitory concentration (IC50) of 21600 nM.

The sequence WVSFNQNLEY registered a Kd with HLA-A*01:01 (source organism: Influenza A virus (A/goose/Guangdong/1/1996(H5N1))) of 97.7 nM.

In the case of STSADQQSLY, the dissociation constant (Kd) in the experiment with HLA-A*01:01 (source organism: Influenza A virus (A/Swine/Indiana/9K035/99 (H1N2))) was 18.7 nM.

For HQLWTTLLSL, the results for the Kd with HLA-B*15:01 [1] (setting [9]), with HLA-A*02:06 (setting [9]) and in the experiment with HLA-B*08:01 were 1.2 nM, 91.8 nM and 1990 nM, respectively.

On to HPRHYATIM, for which the Kd was 1.56 nM with HLA-B*07:02 (source organism: Variola virus); 18200 nM in the experiment with HLA-B*54:01 (source organism: Variola virus); 17200 nM in the experiment with HLA-B*53:01 (source organism: Variola virus); 19100 nM with HLA-B*51:01 (source organism: Variola virus); 153 nM with HLA-B*35:01 (source organism: Variola virus).

For the sequence NPIINTHSF, the Kd with HLA-B*07:02 (setting [3]) is 3 nM; in the experiment with HLA-B*54:01 (setting [3]), 9620 nM; with HLA-B*53:01 (setting [3]), 0.178 nM; with HLA-B*51:01 (setting [3]) it was not below 27100 nM; in the experiment with HLA-B*35:01 (setting [3]) it was 0.188 nM.

For the sequence CKSRNTTPM, in the experiment with HLA-B*15:01 [2] (source organism: Vaccinia virus), the IC50 is not below 221000 nM.

For FSIMIYFTF, the Kd with HLA-B*46:01, with HLA-B*57:01 (setting [10]) and with HLA-B*58:01 (setting [10]) was not below 20000 nM throughout.

For LISIRILYY, the Kd with HLA-B*15:01 [1] (source organism: Vaccinia virus Copenhagen) was 144 nM.

As to HPDFCKNRRY, the Kd was not below 69600 nM in the experiment with HLA-B*07:02 (setting [3]); not below 49300 nM with HLA-B*54:01 (setting [3]); 1140 nM with HLA-B*53:01 (setting [3]); not below 69600 nM in the experiment with HLA-B*51:01 (setting [3]); 2210 nM in the experiment with HLA-B*35:01 (setting [3]).

Regarding LVHQVFGTAY, the Kd with HLA-B*15:01 [1] (setting [9]) was 7.15 nM.

(Values after the Immune Epitope Database (IEDB).)
